Publication PMC3522052, “Association of HLA-DR1 with the allergic response to the major mugwort pollen allergen: molecular background” (BMC Immunology, 2012)

What was measured:
[1] = molecular target: HLA-DRB1*01:01 molecules (human (endogenous in homozygous EBV cells)); assay: ELISA
[2] = molecular target: HLA-DRB1*04:01 molecules (human (endogenous in homozygous EBV cells)); assay: ELISA
[3] = molecular target: T1, HLA-DRB1*01:01 (Homo sapiens, UniProt P01903+P01911, A100R/D57E/F55L/F60I/F76Y/I96L/L162R/M171V/P40L/Q125E/R42F/V115G/Y59C); assay: Peptide/MHC-binding assay, competitive ELISA against biotinylated HA306-318; details: for binding to DR1 molecules, in words: competition with HA306-318, stated for DR1 or DR4; for ratio of IC50 of Art v 1-peptides/HA306-318, HLA-DR1: relative binding activity, competitive ELISA, pH 6.0, 24 h at 37°C, two independent experiments
T1 construct: endogenous in cells
Experimental: (§1) HLA-DRB1*01:01 and -DRB1*04:01 molecules were purified from homozygous EBV cells by affinity chromatography using mAb L243 as described before. Peptide binding to HLA-DR molecules was assessed by competitive ELISA. Dilutions were prepared in 10 mM phosphate, 150 mM NaCl, […], 10 mM citrate (pH = 6.0). […] After 24 hours of incubation at 37°C, peptide/MHC-class II complexes were added to 96 well plates coated with L243 antibody and incubated at RT for 2 hours. Bound biotinylated peptides were detected by Streptavidin-alkaline phosphatase conjugate (GE healthcare, Saclay, France) and 4-methyl-umbelliferyl phosphate (Sigma-Aldrich, St. Quentin Fallavier, France) as substrate. Emitted fluorescence was measured at 450 nm upon excitation at 365 nm by a Gemini fluorometer (Molecular probes, St Grégoire, France). […] Two independent experiments were performed to evaluate competitive binding.

[4] = molecular target: T2, HLA-DRB1*04:01 (Homo sapiens, UniProt P01903+P01911, A100K/A169T/F76Y/I96L/K127E/L162R/M171V/N62H/P40V/Q125Y/R42H/S133A/S149N/S66Y/V115G/V209L/W38E); assay: as above; details: for binding to DR4 molecules, in words: competition with HA306-318, stated for DR1 or DR4; for ratio of IC50 of Art v 1-peptides/HA306-318, HLA-DR4: relative binding activity, competitive ELISA, pH 6.0, 24 h at 37°C, two independent experiments
T2 construct: endogenous in cells
Experimental: as §1

[5] = tested on: Art v 1_25-36-specific TCL and TCC with HLA-DR4-expressing APC; format: cell-based, human
Experimental: (§2) TCL or TCC (5 × 10^4 cells) were stimulated for 3 days with irradiated (60 Gy) APC and peptides at an optimum concentration of 3 μM, if not indicated otherwise. Proliferation was assessed by ^3H-thymidine uptake within the last 16 hours of incubation.

[6] = tested on: Art v 1_25-36-specific TCL and TCC with HLA-DR1-expressing APC; format: cell-based, human
Experimental: as §2

[7] = text statement for both HLA molecules

| Molecule | other [1] | other [2] | ratio of IC50 of Art v 1-peptides/HA306-318, HLA-DR1 [3] | ratio of IC50 of Art v 1-peptides/HA306-318, HLA-DR4 [4] | other results |
| --- | --- | --- | --- | --- | --- |
| Art v 1_(22-33) (peptide) | 2020 | 756 | – | – | – |
| Art v 1_(25-36) (peptide) | 14 | 15 | – | – | – |
| Art v 1_(25-36) Ala-26 (peptide) | 16 | 3 | – | – | – |
| CDKKCIEWEKAQ [Art v 1_22-33] | – | – | 2016 | 756 | binding to DR1 molecules, in words [3]: weak; binding to DR4 molecules, in words [4]: weak |
| KAIEWEKAGHGA [Ala-26, mono-substituted peptide of Art v 1_25-36] | – | – | 16 | 3 | – |
| KCAEWEKAQHGA [Ala-27, mono-substituted peptide of Art v 1_25-36] | – | – | 2596 | >926 | – |
| KCIAWEKAQHGA [Ala-28, mono-substituted peptide of Art v 1_25-36] | – | – | 6 | 11 | – |
| KCIEWAKAQHGA [Ala-30, mono-substituted peptide of Art v 1_25-36] | – | – | 6 | 28 | – |
| KCIEWEAAQHGA [Ala-31, mono-substituted peptide of Art v 1_25-36] | – | – | 17 | 17 | – |
| KCIEWEKAQAGA [Ala-34, mono-substituted peptide of Art v 1_25-36] | – | – | 8 | 17 | – |
| KCIEWEKAQHAA [Ala-35, mono-substituted peptide of Art v 1_25-36] | – | – | 5 | 5 | – |
| KCIEWEKAQHGA [Art v 1_25-36] | – | – | 14 | 15 | binding less than HA306-318, HLA-DR1 [3, 7]: 15 fold; binding less than HA306-318, HLA-DR4 [4, 7]: 15 fold; TCC that did not respond to presentation by DR4 [5]: 18%; TCC that recognized the peptide presented by DR4 [5]: 82%; median proliferation of TCC, DR4 [5]: 24,125 dpm; median proliferation of TCL, DR4 [5]: 25,985 dpm; median proliferation of TCC, DR1 [6]: 36,640 dpm; median proliferation of TCL, DR1 [6]: 31,630 dpm |
| KCIEWEKGQHGA [Gly-32, mono-substituted peptide of Art v 1_25-36] | – | – | 63 | 149 | – |
| NKKCDKKCIEWE [Art v 1_19–30] | – | – | >55032 | >926 | binding to DR1 molecules, in words [3]: negligible; binding to DR4 molecules, in words [4]: negligible |
| KCIEWEKAQAGA [Art v 1_(25-36) Ala-34] | 8 | 17 | – | – | – |
| KCIEWEKGQHGA [Art v 1_(25-36) Gly-32] | 63 | 149 | – | – | – |
| KCIEWEAAQHGA [Art v 1_(25-36) Ala-31] | 17 | 17 | – | – | – |
| KCAEWEKAQHGA [Art v 1_(25-36) Ala-27] | 2600 | – | – | – | – |
| KCIEWAKAQHGA [Art v 1_(25-36) Ala-30] | 6 | 28 | – | – | – |
| KCIAWEKAQHGA [Art v 1_(25-36) Ala-28] | 6 | 11 | – | – | – |
| KCIEWEKAQHAA [Art v 1_(25-36) Ala-35] | 5 | 5 | – | – | – |
